Test results as given in EP4786495A1 (Nanjing Leads Biolabs Co., Ltd., dated 2026).
One block for each binder: values may come before it.

Legend:
[1] = biological target: T1, human BDCA2 protein (Kactus Biosystems, Cat# BCA-HM402) (human, UniProt Q8WTT0 45-213); experiment: BLI Octet RED96e, protein captured on AHC sensor, BDCA2 100 nM in solution
T1 construct: also called Human BDCA2-His
T1 sequence: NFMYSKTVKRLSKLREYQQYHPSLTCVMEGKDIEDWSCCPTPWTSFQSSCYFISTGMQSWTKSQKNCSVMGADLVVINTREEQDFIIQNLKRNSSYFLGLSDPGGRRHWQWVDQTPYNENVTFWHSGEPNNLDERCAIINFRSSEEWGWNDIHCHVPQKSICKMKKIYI

[2] = biological target: T1, human BDCA2 protein (Kactus Biosystems, …); experiment: BLI Octet RED96e, fusion protein captured on AHC sensor, BDCA2 1.56-100 nM in solution
[3] = biological target: T2, human BAFF protein (ACRO Biosystems, Cat. No.: BAF-H52D4) (human, UniProt Q9Y275 134-285); experiment: BLI Octet RED96e, protein captured on AHC sensor, BAFF 1.56-100 nM in solution
[4] = biological target: T3, human APRIL protein (ACRO Biosystems, Cat. No.: APL-H52D1) (human, UniProt O75888 115-250, limits assumed); experiment: BLI Octet RED96e, protein captured on AHC sensor, APRIL 100 nM in solution
T3 sequence (looked up): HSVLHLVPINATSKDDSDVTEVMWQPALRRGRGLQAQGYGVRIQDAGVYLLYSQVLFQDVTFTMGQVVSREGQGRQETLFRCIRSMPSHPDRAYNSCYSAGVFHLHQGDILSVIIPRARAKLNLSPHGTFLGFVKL

[5] = biological target: T2, human BAFF protein (ACRO Biosystems, …); experiment: BLI Octet RED96e, protein captured on AHC sensor, BAFF 100 nM in solution
[6] = biological target: T3, human APRIL protein (ACRO Biosystems, …); experiment: BLI Octet RED96e, protein captured on AHC sensor, APRIL 1.56-100 nM in solution
[7] = biological target: T4, human FcRn protein (ACRO Biosystems, Cat. No.: FCM-H82W4) (human, UniProt P55899 24-297; P61769 21-119); experiment: BLI Octet RED96e, FcRn on SA sensor, fusion protein 3.13-200 nM; binding pH 6.0, dissociation pH 7.4
[8] = biological target: T4, human FcRn protein (ACRO Biosystems, …); experiment: BLI Octet RED96e, FcRn on SA sensor, fusion protein 3.13-200 nM; binding pH 6.0, dissociation pH 6.0
[9] = biological target: T1, human BDCA2 protein (Kactus Biosystems, …); experiment: BLI Octet RED96e, fusion protein captured on AHC sensor, BDCA2 1.56-100 nM in solution; remark: listed apart in the source
[10] = biological target: T2, human BAFF protein (ACRO Biosystems, …); experiment: BLI Octet RED96e, protein captured on AHC sensor, BAFF 1.56-100 nM in solution; remark: listed apart in the source
[11] = biological target: T3, human APRIL protein (ACRO Biosystems, …); experiment: BLI Octet RED96e, protein captured on AHC sensor, APRIL 1.56-100 nM in solution; remark: listed apart in the source
[12] = biological target: T1, human BDCA2 protein (Kactus Biosystems, …); experiment: BLI Octet RED96, antibody captured on AHC sensor, BDCA2 50 nM in solution
[13] = biological target: T1, human BDCA2 protein (Kactus Biosystems, …); experiment: BLI Octet RED96e, antibody captured on AHC sensor, BDCA2 100 nM in solution

- Kd [1]: < 0.001 nM
- Response (nm) [1]: 0.481 nm
- koff [1]: < 1e-07 s⁻¹
- kon [1]: 154000 M⁻¹ s⁻¹
- Kd [2]: < 0.001 nM
- koff [2]: < 1e-07 s⁻¹
- kon [2]: 88800 M⁻¹ s⁻¹
- Kd [3]: < 0.001 nM
- koff [3]: < 1e-07 s⁻¹
- kon [3]: 571000 M⁻¹ s⁻¹
- Kd [4]: 0.246 nM
- Response (nm) [4]: 0.252 nm
- koff [4]: 0.000214 s⁻¹
- kon [4]: 873000 M⁻¹ s⁻¹
- Kd [5]: < 0.001 nM
- Response (nm) [5]: 0.338 nm
- koff [5]: < 1e-07 s⁻¹
- kon [5]: 407000 M⁻¹ s⁻¹
- Kd [6]: 0.679 nM
- koff [6]: 0.00059 s⁻¹
- kon [6]: 868000 M⁻¹ s⁻¹
B1: bispecific fusion protein BI-9D2-A (bispecific antibody, human IgG1, kappa)
heavy: not shown
light: ETVLTQSPATLSLSPGERATLSCRASSSVSYMYWFQQKPGQAPRLLIYSTSNLASGIPARFSGSGSGTDYTLTISSLEPEDFAVYYCQQRRNYPHTFGGGTKVEIKRTVAAPSVFIFPPSDEQLKSGTASVVCLLNNFYPREAKVQWKVDNALQSGNSQESVTEQDSKDSTYSLSSTLTLSKADYEKHKVYACEVTHQGLSSPVTKSFNRGEC
notes: also called heavy chain 37F2C6-HuVH3-D2

- Kd [7]: 3140 nM
- koff [7]: 0.0842 s⁻¹
- kon [7]: 26800 M⁻¹ s⁻¹
- Kd [1]: < 0.001 nM
- Response (nm) [1]: 0.449 nm
- koff [1]: < 1e-07 s⁻¹
- kon [1]: 112000 M⁻¹ s⁻¹
- Kd [2]: < 0.001 nM
- koff [2]: < 1e-07 s⁻¹
- kon [2]: 86600 M⁻¹ s⁻¹
- Kd [8]: 20.1 nM
- koff [8]: 0.035 s⁻¹
- kon [8]: 1.74e+06 M⁻¹ s⁻¹
- Kd [3]: 0.147 nM
- koff [3]: 7.23e-05 s⁻¹
- kon [3]: 492000 M⁻¹ s⁻¹
- Kd [4]: < 0.001 nM
- Response (nm) [4]: 0.397 nm
- koff [4]: < 1e-07 s⁻¹
- kon [4]: 722000 M⁻¹ s⁻¹
- Kd [5]: < 0.001 nM
- Response (nm) [5]: 0.49 nm
- koff [5]: < 1e-07 s⁻¹
- kon [5]: 438000 M⁻¹ s⁻¹
- Kd [6]: 0.415 nM
- koff [6]: 0.000321 s⁻¹
- kon [6]: 774000 M⁻¹ s⁻¹
B2: bispecific fusion protein BI-9ND2-A (bispecific antibody, human IgG1, kappa)
heavy: not shown
light: B1 light
notes: also called heavy chain 37F2C6-HuVH3-3N-D2

- Kd [7]: 727 nM
- koff [7]: 0.0888 s⁻¹
- kon [7]: 122000 M⁻¹ s⁻¹
- Kd [8]: 5.12 nM
- koff [8]: 0.0062 s⁻¹
- kon [8]: 1.21e+06 M⁻¹ s⁻¹
- Kd [9]: < 0.001 nM
- koff [9]: < 1e-07 s⁻¹
- kon [9]: 100000 M⁻¹ s⁻¹
- Kd [10]: 0.0384 nM
- koff [10]: 1.97e-05 s⁻¹
- kon [10]: 515000 M⁻¹ s⁻¹
- Kd [11]: < 0.001 nM
- koff [11]: < 1e-07 s⁻¹
- kon [11]: 981000 M⁻¹ s⁻¹
B3: bispecific fusion protein having YTE mutations in the Fc region BI-9ND2-A-YTE (bispecific antibody, human IgG1, kappa)
heavy: SLSCRKEQGKFYDHLLRDCISCASICGQHPKQCAYFCENGGGGSGGGGSGGGGSQVQLVQSGAEVKKPGASVKVSCKASGYTFTDFAVHWVRQAPGQRLEWMGLIGTSSGSTNYNQKFQGRATMTVDKSANTAYMELSSLRSEDTAVYYCARNGYYVGYYALDYWGQGTTVTVSSASTKGPSVFPLAPSSKSTSGGTAALGCLVKDYFPEPVTVSWNSGALTSGVHTFPAVLQSSGLYSLSSVVTVPSSSLGTQTYICNVNHKPSNTKVDKKVEPKSCDKTHTCPPCPAPELLGGPSVFLFPPKPKDTLYITREPEVTCVVVDVSHEDPEVKFNWYVDGVEVHNAKTKPREEQYNSTYRVVSVLTVLHQDWLNGKEYKCKVSNKALPAPIEKTISKAKGQPREPQVYTLPPSRDELTKNQVSLTCLVKGFYPSDIAVEWESNGQPENNYKTTPPVLDSDGSFFLYSKLTVDKSRWQQGNVFSCSVMHEALHNHYTQKSLSLSPGK
light: B1 light
notes: also called heavy chain 37F2C6-HuVH3-ND2-YTE

- Kd [12]: 0.503 nM
- koff [12]: 6.16e-05 s⁻¹
- kon [12]: 123000 M⁻¹ s⁻¹
B4: anti-BDCA2 chimeric antibody 26H10A11-1 (antibody, human IgG1, kappa, V domains shown)
VH: DVKLVESGGGLVKPGGSLKLSCAASGFTFSSSTMSWVRQTPEKRLEWVATTGGGGSYTYNPDSVKGRFTISRDNAKNTLYLQMSSLRSEDTAMYYCTRDRYDGYYFSMDFWGQGTSVTVSS
VL: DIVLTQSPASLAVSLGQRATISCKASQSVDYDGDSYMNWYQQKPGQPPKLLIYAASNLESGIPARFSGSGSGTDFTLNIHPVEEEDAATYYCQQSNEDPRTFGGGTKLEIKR

- Response (nm) [1]: -0.0175 nm
- kon [1]: 95600 M⁻¹ s⁻¹
- Kd [3]: 1.47 nM
- koff [3]: 0.000475 s⁻¹
- kon [3]: 323000 M⁻¹ s⁻¹
- Kd [4]: 2.08 nM
- Response (nm) [4]: 0.199 nm
- koff [4]: 0.00141 s⁻¹
- kon [4]: 681000 M⁻¹ s⁻¹
- Kd [10]: 1.47 nM
- koff [10]: 0.000475 s⁻¹
- kon [10]: 323000 M⁻¹ s⁻¹
- Kd [5]: 1.1 nM
- Response (nm) [5]: 0.319 nm
- koff [5]: 0.000262 s⁻¹
- kon [5]: 239000 M⁻¹ s⁻¹
- Kd [11]: 2.05 nM
- koff [11]: 0.00139 s⁻¹
- kon [11]: 678000 M⁻¹ s⁻¹
- Kd [6]: 2.05 nM
- koff [6]: 0.00139 s⁻¹
- kon [6]: 678000 M⁻¹ s⁻¹
B5: control antibody telitacicept (Fc fusion)
chain: SRVDQEERFPQGLWTGVAMRSCPEEQYWDPLLGTCMSCKTICNHQSQRTCAAFCRSLSCRKEQGKFYDHLLRDCISCASICGQHPKQCAYFCENKLRSPVNLPPELDKTHTCPPCPAPEAEGAPSVFLFPPKPKDTLMISRTPEVTCVVVDVSHEDPEVKFNWYVDGVEVHNAKTKPREEQYNSTYRVVSVLTVLHQDWLNGKEYKCKVSNKALPSSIEKTISKAKGQPREPQVYTLPPSRDELTKNQVSLTCLVKGFYPSDIAVEWESNGQPENNYKTTPPVLDSDGSFFLYSKLTVDKSRWQQGNVFSCSVMHEALHNHYTQKSLSLSPGK
notes: TACI-Fc fusion control; also called TACI fusion protein telitacicept

- Kd [12]: < 0.001 nM
- koff [12]: < 1e-07 s⁻¹
- kon [12]: 161000 M⁻¹ s⁻¹
- Kd [13]: < 0.001 nM
- koff [13]: < 1e-07 s⁻¹
- kon [13]: 141000 M⁻¹ s⁻¹
B6: anti-BDCA2 chimeric antibody 37F2C6 (antibody, human IgG1, kappa, V domains shown)
VH: QVLLQQSGPELVRPGVSVKVSCKGSGYTFTDFAVHWVKQSQTKSLEWIGLIGTSSGSTNYNQKFKDKATMTVDKSSNTAYLELARLTSEDSAIYYCARNGYYVGYYALDYWGQGTSVTVSS
VL: QTVLTQSPAIMSASPGEKVTITCSASSSVSYMYWFQQKPGTSPKLWIYSTSNLASGVPPRFSGSGSGTSYSLTISRMEAEDAATYYCQQRRNYPHTFGGGTKLEIKR
